Reference: patent US20170240883A1, “CYCLIC PEPTIDES EXPRESSED BY A GENETIC PACKAGE” (Miti Biosystems GmbH, priority 2014, published 2017)

Biological target: T1, Human Plasma Kallikrein (Homo sapiens, UniProt P03952)
T1 construct: purchased Molecular Innovations, Inc, USA
Experiment: Phage selection of ProcM-modified SynLib1 library on biotinylated kallikrein (output titre)
Format: binding
Settings: 24 clones from R3 6.25 nM kallikrein output
Procedure: Human Plasma Kallikrein (Molecular Innovations, Inc, USA) at 1.15 mg/ml (13 μM) solution in 4 mM acetate, 150 mM NaCl, pH 5.3 was biotinylated using NHS-PEG4-Biotin from the EZ-link micro-PEO4-biotinylation kit (Pierce Biotechnology, USA). 680 μl of water was added to the contents of the pre-weighed vial of biotinylation reagent to make a 5 mM solution. 1 μl of this solution was added to 100 μl of the kallikrein solution. This was incubated at RT for 1 hour prior to the separation of the biotinylated protein from the unreacted biotin, using a 2 ml Spin Desalting column (Pierce Biotechnology, USA). The volume of the kallikrein was made up to 350 μl with PBS (Formedium Ltd, UK) and was loaded onto the spin column which had been equilibrated with PBS (as per the manufacturer's instructions). When this solution had been absorbed into the column matrix, a further 50 μl of PBS was added on top and the column was spun in a centrifuge at 1000 g for 2 min. 395 μl of solution was collected, making the concentration of the biotinylated kallikrein about 3.25 μM.
150 μl of stock SynLib1 library (2.5e11 phage per μl) was added to 1850 μl of TE buffer, 2 μl 1 M TCEP (Melford Biolaboratories Ltd, UK) and incubated at RT for 20 minutes to reduce the peptides on the phage. […]

T1 sequence (P03952 20-638): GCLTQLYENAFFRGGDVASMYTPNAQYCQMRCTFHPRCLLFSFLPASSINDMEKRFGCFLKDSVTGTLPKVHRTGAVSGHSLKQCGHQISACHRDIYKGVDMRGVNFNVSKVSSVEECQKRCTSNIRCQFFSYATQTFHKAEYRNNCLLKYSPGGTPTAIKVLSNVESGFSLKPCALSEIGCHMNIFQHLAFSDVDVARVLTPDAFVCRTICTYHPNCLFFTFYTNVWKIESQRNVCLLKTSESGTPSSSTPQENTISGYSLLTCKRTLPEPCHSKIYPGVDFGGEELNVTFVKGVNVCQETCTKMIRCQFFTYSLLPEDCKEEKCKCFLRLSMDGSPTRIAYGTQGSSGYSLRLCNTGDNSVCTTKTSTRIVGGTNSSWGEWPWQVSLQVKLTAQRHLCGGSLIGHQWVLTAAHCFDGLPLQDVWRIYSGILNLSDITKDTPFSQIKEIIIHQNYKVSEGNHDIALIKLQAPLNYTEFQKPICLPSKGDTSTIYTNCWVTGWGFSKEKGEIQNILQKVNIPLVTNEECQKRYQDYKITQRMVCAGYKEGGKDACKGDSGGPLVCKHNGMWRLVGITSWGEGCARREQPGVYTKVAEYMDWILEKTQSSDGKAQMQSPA

AACKGPSPTPNNC [clone 24]
share of the clones that were sequenced: 12.5%
